Assay results taken from article PMC5670201 (2017).

Molecular target: nab-paclitaxel nanoparticles (human, UniProt P02768 25-609)
Assay: BLI

B1: biotinylated bevacizumab (antibody, V domains shown)
VH: EVQLVESGGGLVQPGGSLRLSCAASGYTFTNYGMNWVRQAPGKGLEWVGWINTYTGEPTYAADFKRRFTFSLDTSKSTAYLQMNSLRAEDTAVYYCAKYPHYYGSSHWYFDVWGQGTLVTVSS
VL: DIQMTQSPSSLSASVGDRVTITCSASQDISNYLNWYQQKPGKAPKVLIYFTSSLHSGVPSRFSGSGSGTDFTLTISSLQPEDFATYYCQQYSTVPWTFGQGTKVEIK
modifications: biotin (sites not given) | biotin (sites not given)
  Kd: 4.51 µM
